Test results published in patent publication US20180318386A1, “PEPTIDES AND METHODS OF TREATING ENDOMETRIOSIS USING THE SAME” (BIOINCEPT, LLC, priority 2014, published 2018).

Tests used:
[1] = biological target: Hepatoma-derived growth factor (human) (UniProt P51858); assay: PIF affinity resin pull-down, CD8+ cell lysate, LC-MS/MS count
[2] = biological target: Isoform 2 of Protein SET (human) (UniProt Q01105); assay: as above
[3] = biological target: Serine/arginine-rich-splicing factor 1 (human) (UniProt Q07955); assay: as above
[4] = biological target: 14-3-3 protein gamma (human) (UniProt P61981); assay: PIF affinity resin pull-down, CD14+ cell lysate, LC-MS/MS count
[5] = biological target: 14-3-3 protein theta (human) (UniProt P27348); assay: as above
[6] = biological target: 78 kDa glucose-regulated protein (human) (UniProt P11021); assay: as above
[7] = biological target: Bridging integrator 2 (human) (UniProt Q9UBW5); assay: as above
[8] = biological target: Calreticulin (human) (UniProt P27797); assay: as above
[9] = biological target: Coronin-1A (human) (UniProt P31146); assay: as above
[10] = biological target: Endoplasmin (human) (UniProt P14625); assay: as above
[11] = biological target: Heat shock protein HSP 90-beta (human) (UniProt P08238); assay: as above
[12] = biological target: Histone-binding protein RBBP7 (human) (UniProt Q16576); assay: as above
[13] = biological target: Isoform 2 of Heat shock protein HSP 90-alpha (human) (UniProt P07900); assay: as above
[14] = biological target: Isoform H14 of Myeloperoxidase (human) (UniProt P05164); assay: as above
[15] = biological target: Matrin-3 (human) (UniProt A8MXP9); assay: as above
[16] = biological target: Myeloid cell nuclear differentiation antigen (human) (UniProt P41218); assay: as above
[17] = biological target: Plastin-2 (human) (UniProt P13796); assay: as above
[18] = biological target: Protein S100-A8 (human) (UniProt P05109); assay: as above
[19] = biological target: Protein disulfide-isomerase A4 (human) (UniProt P13667); assay: as above
[20] = biological target: Talin-1 (human) (UniProt Q9Y490); assay: as above
[21] = biological target: Thrombospondin-1 (human) (UniProt P07996); assay: as above
[22] = biological target: Thymosin alpha-1 (human) (UniProt P06454); assay: as above
[23] = biological target: Transitional endoplasmic reticulum ATPase (human) (UniProt P55072); assay: as above
[24] = biological target: Tropomyosin alpha-4 chain (human) (UniProt P67936); assay: as above

Bridging integrator 2 (human), sequence (Q9UBW5 whole entry): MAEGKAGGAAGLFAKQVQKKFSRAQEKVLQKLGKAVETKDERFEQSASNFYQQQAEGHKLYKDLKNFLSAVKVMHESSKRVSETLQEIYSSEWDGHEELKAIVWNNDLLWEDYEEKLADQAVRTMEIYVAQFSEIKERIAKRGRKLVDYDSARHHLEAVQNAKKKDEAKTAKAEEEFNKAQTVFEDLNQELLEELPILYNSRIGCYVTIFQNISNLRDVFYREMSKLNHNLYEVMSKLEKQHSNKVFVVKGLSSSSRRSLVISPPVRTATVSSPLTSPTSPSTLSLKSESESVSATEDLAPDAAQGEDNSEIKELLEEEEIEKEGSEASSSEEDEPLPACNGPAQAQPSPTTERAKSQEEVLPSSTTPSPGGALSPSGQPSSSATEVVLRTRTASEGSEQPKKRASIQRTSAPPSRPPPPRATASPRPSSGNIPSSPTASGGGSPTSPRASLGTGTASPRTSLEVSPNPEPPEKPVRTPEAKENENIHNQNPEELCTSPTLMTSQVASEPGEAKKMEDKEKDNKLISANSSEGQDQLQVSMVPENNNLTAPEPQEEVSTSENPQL
Protein disulfide-isomerase A4 (human), sequence (P13667 21-645 limits assumed): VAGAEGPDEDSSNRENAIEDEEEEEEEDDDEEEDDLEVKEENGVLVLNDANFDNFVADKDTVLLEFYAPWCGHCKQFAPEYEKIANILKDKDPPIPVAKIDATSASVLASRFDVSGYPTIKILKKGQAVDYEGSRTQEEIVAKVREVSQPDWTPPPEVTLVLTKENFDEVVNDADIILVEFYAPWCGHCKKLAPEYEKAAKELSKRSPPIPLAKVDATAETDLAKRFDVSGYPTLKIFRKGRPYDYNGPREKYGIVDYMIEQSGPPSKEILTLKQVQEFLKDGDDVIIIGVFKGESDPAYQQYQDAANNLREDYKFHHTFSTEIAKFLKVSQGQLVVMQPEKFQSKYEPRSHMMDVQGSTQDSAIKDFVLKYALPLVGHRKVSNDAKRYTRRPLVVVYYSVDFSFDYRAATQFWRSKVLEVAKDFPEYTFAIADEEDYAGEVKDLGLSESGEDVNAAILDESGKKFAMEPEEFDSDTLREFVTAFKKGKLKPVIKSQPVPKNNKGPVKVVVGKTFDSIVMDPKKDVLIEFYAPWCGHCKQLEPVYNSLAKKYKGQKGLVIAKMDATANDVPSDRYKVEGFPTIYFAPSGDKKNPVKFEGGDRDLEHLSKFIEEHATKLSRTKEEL
Calreticulin (human), sequence (P27797 18-417 limits assumed): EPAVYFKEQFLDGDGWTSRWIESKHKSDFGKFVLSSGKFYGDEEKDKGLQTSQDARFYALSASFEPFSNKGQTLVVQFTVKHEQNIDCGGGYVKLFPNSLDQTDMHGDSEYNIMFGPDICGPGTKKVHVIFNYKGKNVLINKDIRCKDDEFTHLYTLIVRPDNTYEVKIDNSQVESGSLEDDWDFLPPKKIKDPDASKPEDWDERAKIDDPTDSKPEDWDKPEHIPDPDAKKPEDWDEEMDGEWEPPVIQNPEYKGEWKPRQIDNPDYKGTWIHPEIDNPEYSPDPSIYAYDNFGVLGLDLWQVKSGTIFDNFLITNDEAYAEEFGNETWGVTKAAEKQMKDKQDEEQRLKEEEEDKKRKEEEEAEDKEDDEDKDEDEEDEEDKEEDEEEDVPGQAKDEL
Myeloid cell nuclear differentiation antigen (human), sequence (P41218 whole entry): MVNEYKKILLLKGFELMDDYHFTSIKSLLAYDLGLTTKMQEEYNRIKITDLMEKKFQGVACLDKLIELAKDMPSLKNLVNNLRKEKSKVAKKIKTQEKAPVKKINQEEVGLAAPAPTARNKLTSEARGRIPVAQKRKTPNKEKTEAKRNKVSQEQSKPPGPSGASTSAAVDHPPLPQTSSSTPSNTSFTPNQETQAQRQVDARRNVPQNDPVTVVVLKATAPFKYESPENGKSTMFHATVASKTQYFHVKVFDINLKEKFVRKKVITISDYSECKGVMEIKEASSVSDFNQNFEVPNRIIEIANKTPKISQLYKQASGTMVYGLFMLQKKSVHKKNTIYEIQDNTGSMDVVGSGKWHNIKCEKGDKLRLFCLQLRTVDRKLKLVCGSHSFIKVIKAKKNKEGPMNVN
Heat shock protein HSP 90-beta (human), sequence (P08238 2-724 limits assumed): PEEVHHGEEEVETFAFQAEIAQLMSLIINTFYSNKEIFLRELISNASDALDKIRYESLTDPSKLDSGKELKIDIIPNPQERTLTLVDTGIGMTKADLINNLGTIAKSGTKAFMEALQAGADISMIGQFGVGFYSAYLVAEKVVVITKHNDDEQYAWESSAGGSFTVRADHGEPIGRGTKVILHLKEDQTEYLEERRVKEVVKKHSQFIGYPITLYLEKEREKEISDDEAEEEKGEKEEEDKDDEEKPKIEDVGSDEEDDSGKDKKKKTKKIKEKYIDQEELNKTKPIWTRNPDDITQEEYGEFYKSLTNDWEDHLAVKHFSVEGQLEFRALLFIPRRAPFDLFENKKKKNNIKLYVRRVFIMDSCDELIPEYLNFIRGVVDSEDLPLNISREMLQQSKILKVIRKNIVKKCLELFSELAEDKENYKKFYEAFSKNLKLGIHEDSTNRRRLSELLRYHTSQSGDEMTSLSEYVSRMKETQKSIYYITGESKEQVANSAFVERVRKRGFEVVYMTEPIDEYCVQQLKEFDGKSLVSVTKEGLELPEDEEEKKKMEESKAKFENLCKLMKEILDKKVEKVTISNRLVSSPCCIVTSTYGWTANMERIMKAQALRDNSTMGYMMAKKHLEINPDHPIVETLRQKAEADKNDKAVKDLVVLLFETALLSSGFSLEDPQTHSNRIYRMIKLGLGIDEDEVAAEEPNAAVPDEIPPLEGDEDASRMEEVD
Isoform H14 of Myeloperoxidase (human), sequence (P05164 165-745 limits assumed): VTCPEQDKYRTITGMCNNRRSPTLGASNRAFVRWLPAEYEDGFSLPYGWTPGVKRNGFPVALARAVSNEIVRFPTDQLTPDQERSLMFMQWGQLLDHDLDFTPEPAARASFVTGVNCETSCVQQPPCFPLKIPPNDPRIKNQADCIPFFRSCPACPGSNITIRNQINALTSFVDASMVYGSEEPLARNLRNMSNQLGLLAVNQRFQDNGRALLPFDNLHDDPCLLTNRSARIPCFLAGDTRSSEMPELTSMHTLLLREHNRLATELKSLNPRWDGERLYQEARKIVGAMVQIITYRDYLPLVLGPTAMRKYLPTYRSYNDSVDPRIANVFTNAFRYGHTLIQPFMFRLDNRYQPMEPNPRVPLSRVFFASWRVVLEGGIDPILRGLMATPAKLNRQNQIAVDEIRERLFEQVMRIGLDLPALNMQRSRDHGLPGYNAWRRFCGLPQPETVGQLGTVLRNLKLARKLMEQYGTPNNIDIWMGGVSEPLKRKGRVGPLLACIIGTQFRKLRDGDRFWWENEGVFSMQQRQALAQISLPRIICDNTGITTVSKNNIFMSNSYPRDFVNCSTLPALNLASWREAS
Hepatoma-derived growth factor (human), sequence (P51858 whole entry, canonical isoform): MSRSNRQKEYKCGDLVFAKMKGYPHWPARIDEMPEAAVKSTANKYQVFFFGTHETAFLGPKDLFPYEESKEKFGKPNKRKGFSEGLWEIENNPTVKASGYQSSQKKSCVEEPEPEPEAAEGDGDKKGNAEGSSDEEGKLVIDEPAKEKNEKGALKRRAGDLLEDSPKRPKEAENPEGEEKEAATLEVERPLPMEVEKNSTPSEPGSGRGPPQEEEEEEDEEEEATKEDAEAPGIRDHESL
78 kDa glucose-regulated protein (human), sequence (P11021 19-654 limits assumed): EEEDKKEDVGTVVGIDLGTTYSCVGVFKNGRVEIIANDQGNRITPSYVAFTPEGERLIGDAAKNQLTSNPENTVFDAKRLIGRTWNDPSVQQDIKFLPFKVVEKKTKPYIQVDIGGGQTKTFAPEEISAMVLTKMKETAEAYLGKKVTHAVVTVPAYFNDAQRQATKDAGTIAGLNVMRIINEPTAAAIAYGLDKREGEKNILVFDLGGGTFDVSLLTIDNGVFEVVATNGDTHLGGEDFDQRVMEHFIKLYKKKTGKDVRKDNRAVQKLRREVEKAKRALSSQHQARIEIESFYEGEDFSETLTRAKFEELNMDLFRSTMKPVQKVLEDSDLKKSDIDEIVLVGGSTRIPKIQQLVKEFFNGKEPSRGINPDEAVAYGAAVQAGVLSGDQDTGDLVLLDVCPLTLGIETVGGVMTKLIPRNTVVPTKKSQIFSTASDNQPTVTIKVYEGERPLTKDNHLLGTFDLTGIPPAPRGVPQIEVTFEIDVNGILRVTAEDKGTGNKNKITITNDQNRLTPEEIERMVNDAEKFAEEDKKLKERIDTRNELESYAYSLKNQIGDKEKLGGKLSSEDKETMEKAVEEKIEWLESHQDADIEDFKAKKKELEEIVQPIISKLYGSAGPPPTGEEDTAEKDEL
Endoplasmin (human), sequence (P14625 22-803 limits assumed): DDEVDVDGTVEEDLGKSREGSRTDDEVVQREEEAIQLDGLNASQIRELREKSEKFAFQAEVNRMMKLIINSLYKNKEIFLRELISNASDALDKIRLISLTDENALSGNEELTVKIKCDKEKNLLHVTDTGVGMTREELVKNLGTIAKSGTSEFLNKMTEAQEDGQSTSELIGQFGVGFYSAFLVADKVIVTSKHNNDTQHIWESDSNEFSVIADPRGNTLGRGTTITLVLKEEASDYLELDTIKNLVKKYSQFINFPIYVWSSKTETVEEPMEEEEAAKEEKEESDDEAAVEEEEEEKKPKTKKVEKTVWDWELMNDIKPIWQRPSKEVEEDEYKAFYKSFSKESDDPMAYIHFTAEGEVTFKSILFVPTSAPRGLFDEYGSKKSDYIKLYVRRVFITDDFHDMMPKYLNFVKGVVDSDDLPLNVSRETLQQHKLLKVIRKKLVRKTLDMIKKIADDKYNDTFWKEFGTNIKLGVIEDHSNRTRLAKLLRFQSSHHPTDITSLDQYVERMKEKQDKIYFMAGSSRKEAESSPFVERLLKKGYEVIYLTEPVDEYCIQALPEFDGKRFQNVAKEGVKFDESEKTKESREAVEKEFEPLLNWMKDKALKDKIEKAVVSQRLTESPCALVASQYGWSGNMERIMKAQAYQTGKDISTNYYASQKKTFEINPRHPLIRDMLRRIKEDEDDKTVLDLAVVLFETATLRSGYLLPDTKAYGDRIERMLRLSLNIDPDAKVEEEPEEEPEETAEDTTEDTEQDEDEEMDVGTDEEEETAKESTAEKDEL

PIF15 affinity resin (Cys-C6 spacer-PIF15 conjugated to agarose) (peptide)
Ave [1]: 1
Inject 1 [1]: 1
Inject 2 [1]: 1
Inject 3 [1]: 1
Ave [2]: 1
Inject 1 [2]: 1
Inject 2 [2]: 1
Inject 3 [2]: 1
Ave [3]: 1
Inject 1 [3]: 1
Inject 2 [3]: 1
Inject 3 [3]: 1
Ave [4]: 3
Inject 1 [4]: 3
Inject 2 [4]: 3
Inject 3 [4]: 3
Ave [5]: 1
Inject 1 [5]: 1
Inject 2 [5]: 1
Inject 3 [5]: 2
Ave [6]: 4
Inject 1 [6]: 6
Inject 2 [6]: 3
Inject 3 [6]: 3
Ave [7]: 1
Inject 1 [7]: 1
Inject 2 [7]: 2
Inject 3 [7]: 0
Ave [8]: 6
Inject 1 [8]: 7
Inject 2 [8]: 4
Inject 3 [8]: 6
Ave [9]: 2
Inject 1 [9]: 2
Inject 2 [9]: 2
Inject 3 [9]: 1
Ave [10]: 1
Inject 1 [10]: 0
Inject 2 [10]: 2
Inject 3 [10]: 1
Ave [11]: 1
Inject 1 [11]: 2
Inject 2 [11]: 1
Inject 3 [11]: 1
Ave [12]: 1
Inject 1 [12]: 2
Inject 2 [12]: 0
Inject 3 [12]: 1
Ave [13]: 1
Inject 1 [13]: 1
Inject 2 [13]: 2
Inject 3 [13]: 1
Ave [14]: 2
Inject 1 [14]: 2
Inject 2 [14]: 2
Inject 3 [14]: 2
Ave [15]: 1
Inject 1 [15]: 1
Inject 2 [15]: 2
Inject 3 [15]: 1
Ave [16]: 2
Inject 1 [16]: 2
Inject 2 [16]: 2
Inject 3 [16]: 2
Ave [17]: 1
Inject 1 [17]: 1
Inject 2 [17]: 1
Inject 3 [17]: 2
Ave [18]: 2
Inject 1 [18]: 2
Inject 2 [18]: 1
Inject 3 [18]: 2
Ave [19]: 2
Inject 1 [19]: 4
Inject 2 [19]: 1
Inject 3 [19]: 2
Ave [20]: 6
Inject 1 [20]: 5
Inject 2 [20]: 6
Inject 3 [20]: 8
Ave [21]: 7
Inject 1 [21]: 7
Inject 2 [21]: 5
Inject 3 [21]: 8
Ave [22]: 5
Inject 1 [22]: 5
Inject 2 [22]: 5
Inject 3 [22]: 4
Ave [23]: 3
Inject 1 [23]: 3
Inject 2 [23]: 2
Inject 3 [23]: 3
Ave [24]: 8
Inject 1 [24]: 8
Inject 2 [24]: 7
Inject 3 [24]: 8
